Molecular target: mlp3a_human MAP1LC3A (UniProt Q9H492)

BCL2/adenovirus E1B 19 kDa protein-interacting protein 3-like (Mus musculus), Q9Z2F7 L38A
effect of a mutation on the interaction: disrupting interaction

Source: IntAct's records for PubMed 20010802
